Test results: patent US20220204611A1 (Amgen, published 2022)
Substitutions are numbered along the chain they refer to.

T1: recombinant soluble human TREM2 protein (human TREM2 ECD-FlagHis) (human, UniProt Q9NZC2 19-174)
T1 sequence: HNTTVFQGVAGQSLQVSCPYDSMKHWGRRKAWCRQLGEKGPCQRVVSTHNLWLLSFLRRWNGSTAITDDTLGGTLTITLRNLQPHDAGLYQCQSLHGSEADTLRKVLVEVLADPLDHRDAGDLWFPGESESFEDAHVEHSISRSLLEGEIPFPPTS

T2: human TREM2 on cells (human, UniProt Q9NZC2 19-230)
T2 sequence: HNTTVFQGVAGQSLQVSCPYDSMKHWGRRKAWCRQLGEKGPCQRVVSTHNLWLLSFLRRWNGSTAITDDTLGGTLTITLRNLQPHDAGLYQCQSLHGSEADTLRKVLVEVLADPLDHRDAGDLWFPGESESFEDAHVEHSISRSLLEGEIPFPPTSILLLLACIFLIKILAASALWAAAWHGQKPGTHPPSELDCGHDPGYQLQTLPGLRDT

T3: soluble human TREM2 protein (TREM2 ECD-huIgG1 Fc fusion protein) (human, UniProt Q9NZC2 19-174, biotinylated)
T3 construct: also called biotinylated soluble human TREM2 protein
T3 sequence: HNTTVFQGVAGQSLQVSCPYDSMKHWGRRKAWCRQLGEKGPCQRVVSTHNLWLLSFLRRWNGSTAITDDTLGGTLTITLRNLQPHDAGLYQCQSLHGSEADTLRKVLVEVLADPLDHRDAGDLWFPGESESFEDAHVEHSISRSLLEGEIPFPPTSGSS

B1: 6E7 (antibody, human IgG2, V domains shown)
VH: EVQLVQSGAEVKKPGESLKISCKGSGYSFTSYWIAWVRQMPGKGLEWMGIIYPGDSDTRYSPSFQGQVTISADKSISTAYLQWSSLKASDTAMYFCARQRTFYYDSSDYFDYWGQGTLVTVSS
VL: DIQMTQSPSSVSASVGDRVTITCRASQGISSWLAWYQQKPGKAPKLLIYAASSLQNGVPSRFSGSGSGTDFTLTISSLQPEDFATYFCQQADSFPRTFGQGTKLEIK
notes: human IgG2 from hybridoma
B2: 10E3 (antibody, human IgG2, V domains shown)
VH: EVQLVQSGAEVKKPGESLMISCKGSGYSFTNYWIGWVRQMPGKGLEWMGIIYPGDSDTRYSPSFQGQVTISADKSISTAYLQWSSLKASDTAMYFCARRRQGIWGDALDIWGQGTLVTVSS
VL: EIVMTQSPATLSVSPGERATLSCRASQSVSSNLAWFQQKPGQAPRLLIYGASTRATGIPARFSVSGSGTEFTLTISSLQSEDFAFYYCLQDNNWPPTFGPGTKVDIK
notes: human IgG2 from hybridoma
B3: 13E7 (antibody, human IgG2, V domains shown)
VH: B2 VH with N31S, I110F
VL: B2 VL with F85V
notes: human IgG2 from hybridoma
B4: 5E3 (antibody, human IgG2, V domains shown)
VH: QVQLVQSGAEVKKPGASVKVSCKASGYTFTGYYIHWVRQAPGLGLEWMGWINPYSGGTTSAQKFQGRVTMTRDTSISSAYMELSRLRSDDTAVYYCARDGGYLALYGTDVWGQGTTVTVSS
VL: DIQMTQSPSSLSASVGDRVTITCRASQGISNYLAWFQQKPGKAPKSLIYAASSLQSGVPSKFSGSGSGTDFTLTISSLQPEDFATYYCQQYSTYPFTFGPGTKVDIK
notes: human IgG2 from hybridoma

Target: T1, recombinant soluble human TREM2 protein …
Assay: Octet BLI binning; competitor: load Ab 25F12
In short: (§1)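 Sixteen hybridoma-derived anti-TREM2 antibodies were cross-tested pairwise as load and sandwich antibodies on anti-human Fc biosensors at 25° C. Assay buffer held 10 mM Tris pH 7.6, 150 mM NaCl, 1 mM CaCl₂, 0.1% Triton X-100 and 1 mg/mL BSA.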

| sandwich binding signal | Binder |
| --- | --- |
| 0.371 | B1 |
| 0.273 | B2 |
| 0.278 | B3 |
| 0.38 | B4 |

Target: T1, recombinant soluble human TREM2 protein …
Assay: Octet BLI binning; competitor: load Ab 6E7
Description: (§2) Each of sixteen different anti-TREM2 antibodies produced from hybridomas were quantitated and loaded onto one of the anti-human Fc sensors at 5 μg/mL for 2 minutes (“Load Antibody”). The sensor was then blocked with 100 μg/mL of an irrelevant human IgG2 antibody for 5 minutes. […] Next, each of the sixteen different anti-TREM2 antibodies (“Sandwich Antibody”) was added to the sensor at 5 μg/mL and allowed to bind for 5 minutes. All assay buffers contained 10 mM Tris (pH 7.6), 0.1% Triton X-100, 150 mM NaCl, 1 mM CaCl₂, and 1 mg/mL BSA. The assay was conducted at 25° C. Experimental kinetic results were fit to a 1:1 binding model.
(§3) However, if addition of the sandwich antibody produces a binding event, then the sandwich antibody binds to a different epitope on human TREM2 than the load antibody and the two antibodies are categorized into different epitope bins.

| sandwich binding signal | Binder |
| --- | --- |
| 0.009 | B1 |
| -0.012 | B2 |
| -0.01 | B3 |
| 0.514 | B4 |

Target: T1, recombinant soluble human TREM2 protein …
Assay: Octet BLI binning; competitor: load Ab 24A10
Description: as §2, §3

| sandwich binding signal | Binder |
| --- | --- |
| 0.499 | B1 |
| 0.38 | B2 |
| 0.383 | B3 |
| 0.441 | B4 |

Target: T2, human TREM2 on cells
Assay: cell-based or functional assay

| pSyk EC50 | Binder |
| --- | --- |
| 0.29 nM | B1 |
| 0.4 nM | B2 |
| 0.4 nM | B3 |
| 0.24 nM | B4 |

Target: T1, recombinant soluble human TREM2 protein …
Assay: Octet BLI binning; competitor: load Ab 5E3
Description: as §2, §3

| sandwich binding signal | Binder |
| --- | --- |
| 0.565 | B1 |
| 0.415 | B2 |
| 0.428 | B3 |
| -0.165 | B4 |

Target: T1, recombinant soluble human TREM2 protein …
Assay: Octet BLI binning; competitor: load Ab 26F2
In short: as §1

| sandwich binding signal | Binder |
| --- | --- |
| 0.506 | B1 |
| 0.354 | B2 |
| 0.363 | B3 |
| -0.045 | B4 |

Target: T1, recombinant soluble human TREM2 protein …
Assay: Octet BLI binning; competitor: load Ab 26A10
Description: as §2, §3

| sandwich binding signal | Binder |
| --- | --- |
| 0.475 | B1 |
| 0.367 | B2 |
| 0.371 | B3 |
| -0.052 | B4 |

Target: T1, recombinant soluble human TREM2 protein …
Assay: Octet BLI binning; competitor: load Ab 24F4
Description: as §2, §3

| sandwich binding signal | Binder |
| --- | --- |
| 0.054 | B1 |
| -0.002 | B2 |
| -0.002 | B3 |
| 0.434 | B4 |

Target: T1, recombinant soluble human TREM2 protein …
Assay: Octet BLI binning; competitor: load Ab 26C10
Description: as §2, §3

| sandwich binding signal | Binder |
| --- | --- |
| 0.472 | B1 |
| 0.348 | B2 |
| 0.369 | B3 |
| -0.073 | B4 |

Target: T1, recombinant soluble human TREM2 protein …
Assay: Octet BLI binning; competitor: load Ab 33B12
Description: as §2, §3

| sandwich binding signal | Binder |
| --- | --- |
| 0.434 | B1 |
| 0.303 | B2 |
| 0.303 | B3 |
| -0.055 | B4 |

Target: T1, recombinant soluble human TREM2 protein …
Assay: Octet BLI binning; competitor: load Ab 16B8
Description: as §2, §3

| sandwich binding signal | Binder |
| --- | --- |
| 0.429 | B1 |
| 0.33 | B2 |
| 0.329 | B3 |
| -0.047 | B4 |

Target: T1, recombinant soluble human TREM2 protein …
Assay: Octet BLI binning; competitor: load Ab 32E3
In short: as §1

| sandwich binding signal | Binder |
| --- | --- |
| 0.079 | B1 |
| 0.007 | B2 |
| 0.01 | B3 |
| 0.338 | B4 |

Target: T1, recombinant soluble human TREM2 protein …
Assay: Octet BLI binning; competitor: load Ab 13E7
Description: as §2, §3

| sandwich binding signal | Binder |
| --- | --- |
| 0.051 | B1 |
| -0.019 | B2 |
| -0.017 | B3 |
| 0.259 | B4 |

Target: T1, recombinant soluble human TREM2 protein …
Assay: Octet BLI binning; competitor: load Ab 24G6
In short: as §1

| sandwich binding signal | Binder |
| --- | --- |
| 0.412 | B1 |
| 0.317 | B2 |
| 0.338 | B3 |
| 0.328 | B4 |

Target: T3, soluble human TREM2 protein (TREM2 …)
Assay: ELISA, hybridoma supernatant on captured biotinylated TREM2 ECD-Fc

| OD 450 | Binder |
| --- | --- |
| 3.17 OD450 | B1 |
| 0.55 OD450 | B2 |
| 0.73 OD450 | B3 |
| 3.88 OD450 | B4 |

Target: T2, human TREM2 on cells
Assay: cell-based or functional assay
Remark: another data set of the same source

| Emax (% maximum activation compared to RnD antibody) | pSyk EC50, differentiated THP-1 cells | Binder |
| --- | --- | --- |
| 273% | 0.899 nM | B1 |
| 456% | 1 nM | B2 |
| 460% | 0.462 nM | B3 |
| 195% | 0.594 nM | B4 |
